EC50 and Kd data for 1 substance are collected here from patent US20230331840A1.

The term EC50 denotes the concentration that produces a half-maximal response. A higher EC50 goes with a need for much substance. The term Kd denotes the equilibrium constant for the complex coming apart.

The target in one assay is CD22-his (human) (UniProt P20273). In words: ELISA. On the technique in general: ELISA stands for enzyme-linked immunosorbent assay.
The target of the next assay is h CD22-His (human) (UniProt P20273). As to the kind of experiment: BLI (Fortebio). (In general: BLI is a label-free optical method that tracks binding on a fibre tip over time.)

On to M971, for which the EC50 in the assay with CD22-his (human) was 195 pM. Moreover, in the assay with h CD22-His (human), the Kd is 860 pM.
